Measured values: patent publication US20250262210A1 (TRUSTEES OF COLUMBIA UNIVERSITY IN THE CITY OF NEW YORK, published 2025)

Columns and labels:
Assay in all cases: IP/MS, LZTR1 wild type-FLAG, U87
CDC42BPA = CDC42BPA (human, UniProt Q5VT25 1-1732, limits assumed)
In short: (§1)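 Extracted peptides in 3% acetonitrile/0.1% formic acid ran on a 50 cm C18 column into an Orbitrap Fusion, with MaxQuant identification and spectral counting.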

POLR1A = POLR1A (human, UniProt O95602 1-1720)
In short: as §1

RAPH1 = molecular target: T1, RAPH1 (human, UniProt Q70E73 1-1250, limits assumed)
T1 sequence (looked up): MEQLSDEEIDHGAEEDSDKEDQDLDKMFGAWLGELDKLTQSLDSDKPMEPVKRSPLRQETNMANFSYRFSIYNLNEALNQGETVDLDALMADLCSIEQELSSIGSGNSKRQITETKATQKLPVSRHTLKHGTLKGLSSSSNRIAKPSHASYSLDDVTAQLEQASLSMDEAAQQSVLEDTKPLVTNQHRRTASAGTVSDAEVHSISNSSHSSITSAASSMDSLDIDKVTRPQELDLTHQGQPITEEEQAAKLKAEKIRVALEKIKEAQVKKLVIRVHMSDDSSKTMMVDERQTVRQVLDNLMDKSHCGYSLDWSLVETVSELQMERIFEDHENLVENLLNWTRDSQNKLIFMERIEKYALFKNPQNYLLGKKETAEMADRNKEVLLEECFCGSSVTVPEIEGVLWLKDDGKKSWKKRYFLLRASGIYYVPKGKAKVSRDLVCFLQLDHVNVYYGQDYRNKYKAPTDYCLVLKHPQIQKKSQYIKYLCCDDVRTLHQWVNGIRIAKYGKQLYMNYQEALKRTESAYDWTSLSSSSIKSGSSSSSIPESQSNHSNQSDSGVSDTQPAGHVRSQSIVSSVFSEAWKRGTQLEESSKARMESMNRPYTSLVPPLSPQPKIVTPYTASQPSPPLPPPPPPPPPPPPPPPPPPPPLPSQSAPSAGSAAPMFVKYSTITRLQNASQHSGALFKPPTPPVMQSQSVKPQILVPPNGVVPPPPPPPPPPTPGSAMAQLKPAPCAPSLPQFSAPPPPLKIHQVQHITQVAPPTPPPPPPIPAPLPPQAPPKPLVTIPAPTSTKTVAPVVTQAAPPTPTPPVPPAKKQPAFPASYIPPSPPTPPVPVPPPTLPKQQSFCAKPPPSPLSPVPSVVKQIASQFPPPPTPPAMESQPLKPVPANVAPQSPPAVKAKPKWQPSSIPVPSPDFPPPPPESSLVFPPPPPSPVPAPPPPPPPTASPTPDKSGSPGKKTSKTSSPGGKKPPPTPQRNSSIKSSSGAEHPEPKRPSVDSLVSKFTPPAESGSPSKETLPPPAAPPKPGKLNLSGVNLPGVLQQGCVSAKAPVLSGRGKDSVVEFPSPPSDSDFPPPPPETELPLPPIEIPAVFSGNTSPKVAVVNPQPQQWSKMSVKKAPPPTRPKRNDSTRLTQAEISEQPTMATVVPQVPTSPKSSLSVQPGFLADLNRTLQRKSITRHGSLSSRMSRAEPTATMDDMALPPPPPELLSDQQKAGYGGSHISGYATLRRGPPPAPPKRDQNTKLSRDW
In short: as §1

TTC27 = TTC27 (human, UniProt Q6P3X3 1-843)
In short: as §1

RTTN = RTTN (human, UniProt Q86VV8 1-2226, limits assumed)
Chain of RTTN (Q86VV8 whole entry): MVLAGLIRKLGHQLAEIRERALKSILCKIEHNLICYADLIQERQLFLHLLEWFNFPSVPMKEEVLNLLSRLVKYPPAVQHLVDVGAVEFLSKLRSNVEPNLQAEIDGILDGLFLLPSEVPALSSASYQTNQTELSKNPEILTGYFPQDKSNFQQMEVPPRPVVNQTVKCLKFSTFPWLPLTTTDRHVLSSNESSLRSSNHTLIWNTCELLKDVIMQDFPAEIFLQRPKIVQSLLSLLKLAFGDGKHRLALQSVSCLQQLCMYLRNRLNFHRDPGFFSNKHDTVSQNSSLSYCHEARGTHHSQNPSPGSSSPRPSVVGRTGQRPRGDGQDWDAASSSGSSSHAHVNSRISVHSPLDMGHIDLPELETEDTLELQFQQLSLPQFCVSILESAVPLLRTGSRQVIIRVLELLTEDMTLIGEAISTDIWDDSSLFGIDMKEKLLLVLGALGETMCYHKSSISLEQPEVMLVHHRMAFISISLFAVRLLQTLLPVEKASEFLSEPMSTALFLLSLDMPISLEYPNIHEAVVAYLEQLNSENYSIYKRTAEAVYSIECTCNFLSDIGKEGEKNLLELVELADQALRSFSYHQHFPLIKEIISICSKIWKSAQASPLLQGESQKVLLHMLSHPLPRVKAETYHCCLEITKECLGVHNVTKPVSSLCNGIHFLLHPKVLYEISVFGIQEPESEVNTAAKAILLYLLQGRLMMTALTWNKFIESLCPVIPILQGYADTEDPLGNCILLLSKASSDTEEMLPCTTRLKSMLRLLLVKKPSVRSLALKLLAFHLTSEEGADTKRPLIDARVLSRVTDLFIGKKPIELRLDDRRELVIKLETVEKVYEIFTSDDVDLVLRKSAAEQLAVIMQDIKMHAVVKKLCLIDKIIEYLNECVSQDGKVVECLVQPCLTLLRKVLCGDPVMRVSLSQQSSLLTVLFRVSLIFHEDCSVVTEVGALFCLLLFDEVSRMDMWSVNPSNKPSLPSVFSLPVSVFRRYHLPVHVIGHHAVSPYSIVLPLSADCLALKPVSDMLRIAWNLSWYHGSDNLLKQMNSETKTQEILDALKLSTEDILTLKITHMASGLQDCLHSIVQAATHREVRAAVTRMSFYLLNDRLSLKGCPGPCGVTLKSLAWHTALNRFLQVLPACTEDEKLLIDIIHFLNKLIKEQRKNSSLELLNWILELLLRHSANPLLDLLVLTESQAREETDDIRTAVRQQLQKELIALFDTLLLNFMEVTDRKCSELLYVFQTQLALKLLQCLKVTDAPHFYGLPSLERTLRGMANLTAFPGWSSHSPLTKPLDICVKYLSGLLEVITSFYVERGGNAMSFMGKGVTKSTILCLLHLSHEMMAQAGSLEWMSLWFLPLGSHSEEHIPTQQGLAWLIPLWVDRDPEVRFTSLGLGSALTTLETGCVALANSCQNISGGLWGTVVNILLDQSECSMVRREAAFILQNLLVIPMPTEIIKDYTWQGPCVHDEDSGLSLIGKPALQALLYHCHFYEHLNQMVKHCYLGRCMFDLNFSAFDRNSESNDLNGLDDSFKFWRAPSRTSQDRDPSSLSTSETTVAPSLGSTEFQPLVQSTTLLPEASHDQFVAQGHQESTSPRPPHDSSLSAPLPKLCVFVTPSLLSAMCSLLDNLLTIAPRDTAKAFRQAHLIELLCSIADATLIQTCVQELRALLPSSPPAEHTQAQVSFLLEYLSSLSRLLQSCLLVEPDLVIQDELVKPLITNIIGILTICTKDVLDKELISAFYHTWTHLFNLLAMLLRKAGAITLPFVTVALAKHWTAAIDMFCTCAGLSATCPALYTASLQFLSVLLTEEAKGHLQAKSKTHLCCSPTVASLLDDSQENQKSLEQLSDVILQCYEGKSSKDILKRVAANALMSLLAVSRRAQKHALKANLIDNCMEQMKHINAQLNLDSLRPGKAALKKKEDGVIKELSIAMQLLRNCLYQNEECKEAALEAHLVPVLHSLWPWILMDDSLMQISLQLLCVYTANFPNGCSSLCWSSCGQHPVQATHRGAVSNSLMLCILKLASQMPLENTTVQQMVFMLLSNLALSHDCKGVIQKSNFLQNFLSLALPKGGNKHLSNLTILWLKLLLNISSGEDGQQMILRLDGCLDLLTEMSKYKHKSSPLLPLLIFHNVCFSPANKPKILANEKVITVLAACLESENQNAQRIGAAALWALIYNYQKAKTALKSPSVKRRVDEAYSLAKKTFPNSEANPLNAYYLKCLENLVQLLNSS
In short: as §1

RNF213 = RNF213 (human, UniProt Q63HN8 1-5207, limits assumed)
In short: as §1

SKIV2L = SKIV2L (human, UniProt Q15477 1-1246)
In short: as §1

Measured: binding result

Chain of POLR1A (O95602 whole entry): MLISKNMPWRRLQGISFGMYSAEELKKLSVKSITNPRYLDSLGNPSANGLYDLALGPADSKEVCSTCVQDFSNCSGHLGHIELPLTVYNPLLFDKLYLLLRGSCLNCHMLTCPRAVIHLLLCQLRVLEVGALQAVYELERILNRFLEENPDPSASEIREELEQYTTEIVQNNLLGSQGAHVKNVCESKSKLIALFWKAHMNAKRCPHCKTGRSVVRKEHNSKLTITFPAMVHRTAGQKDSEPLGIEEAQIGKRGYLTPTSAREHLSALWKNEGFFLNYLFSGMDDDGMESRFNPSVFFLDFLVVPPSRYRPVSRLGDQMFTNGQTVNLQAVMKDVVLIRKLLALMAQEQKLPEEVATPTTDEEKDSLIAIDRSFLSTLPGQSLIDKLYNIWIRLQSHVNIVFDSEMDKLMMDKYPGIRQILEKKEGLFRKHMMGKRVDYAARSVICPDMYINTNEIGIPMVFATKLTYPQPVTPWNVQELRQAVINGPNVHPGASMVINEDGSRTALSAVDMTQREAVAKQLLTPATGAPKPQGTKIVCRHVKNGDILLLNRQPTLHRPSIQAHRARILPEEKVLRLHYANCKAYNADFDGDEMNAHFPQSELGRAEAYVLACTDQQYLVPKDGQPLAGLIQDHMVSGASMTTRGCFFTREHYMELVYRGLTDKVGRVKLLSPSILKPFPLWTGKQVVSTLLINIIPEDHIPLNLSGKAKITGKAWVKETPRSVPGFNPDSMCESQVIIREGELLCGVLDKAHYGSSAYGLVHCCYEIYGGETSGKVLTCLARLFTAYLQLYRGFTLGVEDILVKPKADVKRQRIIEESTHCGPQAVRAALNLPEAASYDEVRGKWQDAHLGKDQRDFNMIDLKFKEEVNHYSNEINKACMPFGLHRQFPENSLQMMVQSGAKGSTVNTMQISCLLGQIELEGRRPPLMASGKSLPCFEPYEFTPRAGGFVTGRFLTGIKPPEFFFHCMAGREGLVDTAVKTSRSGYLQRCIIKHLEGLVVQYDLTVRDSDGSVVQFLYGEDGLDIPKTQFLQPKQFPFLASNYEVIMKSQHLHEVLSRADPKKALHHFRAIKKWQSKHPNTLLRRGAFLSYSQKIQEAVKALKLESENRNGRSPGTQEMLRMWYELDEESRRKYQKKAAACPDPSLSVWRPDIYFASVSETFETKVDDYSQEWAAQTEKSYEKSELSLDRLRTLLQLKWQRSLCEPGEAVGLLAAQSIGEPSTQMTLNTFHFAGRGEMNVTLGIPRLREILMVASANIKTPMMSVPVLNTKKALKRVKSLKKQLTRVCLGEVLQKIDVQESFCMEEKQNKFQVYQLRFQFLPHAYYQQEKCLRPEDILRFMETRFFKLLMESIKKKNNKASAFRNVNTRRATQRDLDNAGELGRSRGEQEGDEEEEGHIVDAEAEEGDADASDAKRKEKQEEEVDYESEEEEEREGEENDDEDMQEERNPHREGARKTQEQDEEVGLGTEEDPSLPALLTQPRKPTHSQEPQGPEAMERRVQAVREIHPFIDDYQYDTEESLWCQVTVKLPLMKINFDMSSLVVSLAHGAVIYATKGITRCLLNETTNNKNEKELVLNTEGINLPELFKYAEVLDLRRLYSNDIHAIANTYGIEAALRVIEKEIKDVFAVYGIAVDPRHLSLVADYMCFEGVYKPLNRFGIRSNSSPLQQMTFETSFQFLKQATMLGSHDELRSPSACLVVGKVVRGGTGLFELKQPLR

B1: LZTR1-FLAG (other, human, UniProt Q8N653 1-840, looked up)
chain: MAGPGSTGGQIGAAALAGGARSKVAPSVDFDHSCSDSVEYLTLNFGPFETVHRWRRLPPCDEFVGARRSKHTVVAYKDAIYVFGGDNGKTMLNDLLRFDVKDCSWCRAFTTGTPPAPRYHHSAVVYGSSMFVFGGYTGDIYSNSNLKNKNDLFEYKFATGQWTEWKIEGRLPVARSAHGATVYSDKLWIFAGYDGNARLNDMWTIGLQDRELTCWEEVAQSGEIPPSCCNFPVAVCRDKMFVFSGQSGAKITNNLFQFEFKDKTWTRIPTEHLLRGSPPPPQRRYGHTMVAFDRHLYVFGGAADNTLPNELHCYDVDFQTWEVVQPSSDSEVGGAEVPERACASEEVPTLTYEERVGFKKSRDVFGLDFGTTSAKQPTQPASELPSGRLFHAAAVISDAMYIFGGTVDNNIRSGEMYRFQFSCYPKCTLHEDYGRLWESRQFCDVEFVLGEKEECVQGHVAIVTARSRWLRRKITQARERLAQKLEQEAAPVPREAPGVAAGGARPPLLHVAIREAEARPFEVLMQFLYTDKIKYPRKGHVEDVLLIMDVYKLALSFQLCRLEQLCRQYIEASVDLQNVLVVCESAARLQLSQLKEHCLNFVVKESHFNQVIMMKEFERLSSPLIVEIVRRKQQPPPRTPLDQPVDIGTSLIQDMKAYLEGAGAEFCDITLLLDGHPRPAHKAILAARSSYFEAMFRSFMPEDGQVNISIGEMVPSRQAFESMLRYIYYGEVNMPPEDSLYLFAAPYYYGFYNNRLQAYCKQNLEMNVTVQNVLQILEAADKTQALDMKRHCLHIIVHQFTKVSKLPTLRSLSQQLLLDIIDSLASHISDKQCAELGADI
notes: Expressed in HEK 293T, HeLa or U87 cells; used as cell lysate; also called LZTR1 wild type-FLAG; LZTR1 WT; not shown: FLAG tag at the C-terminus
binds: all assays above
